Data reported in the DeepSol protein solubility set.

Test: soluble on expression in E. coli; label from the status in PepcDB or PDB records

Q: Which “soluble on expression in E. coli” value does the source give for “MSMLLGDHPELRSRAREIASLAARVVEQVNSMPAGEQKRLLSEQYPELARFEEQREKGDKGLPPLPGAVEGRVKLRFAPNPDFVIHMGNARPAIVNHEYARMYKGRMVLRFEDTDPRTKTPLREAYDLIRQDLKWLGVSWDEEYIQSLRMEVFYSVARRAIERGCAYVDNCGREGKELLSRGEYCPTRDLGPEDNLELFEKMLEGEFYEGEAVVRMKTDPRHPNPSLRDWVAMRIIDTEKHPHPLVGSRYLVWPTYNFAVSVDDHMMEITHVLRGKEHQLNTEKQLAVYRCMGWRPPYFIHFGRLKLEGFILSKSKIRKLLEERPGEFMGYDDPRFGTIAGLRRRGVLAEAIRQIILEVGVKPTDATISWANLAAANRKLLDERADRIMYVEDPVEMEVELAQVECRAAEIPFHPSRPQRKRRITLCTGDKVLLTREDAVEGRQLRLMGLSNFTVSQGILREVDPSLEYARRMKLPIVQWVKKGGEASVEVLEPVELELRRHQGYAEDAIRGYGVDSRLQFVRYGFVRVDSVEDGVYRVIYTHK” here?
A: soluble

Q: Which “soluble on expression in E. coli” value does the source give for “MSWLRTELWTAEVVYTGFGTPMLRGALAVQGGFVVGQGSLEELRARFPEGEVVHKGLALLPPPVNAHTHLDLSLLPLYRGPFAGFLSHVVAHRERRGLEGAKRGLEELLASGVGAFADIVFKDEVMDFLLQESPLPGVAFYEVFAPEPSLAEEVYRAVRRKVEAWRRREGKVKVGLSPHAPYSVSPPLLKRLAEWARAEGLPLMVHAAESPEEVAFLLRGEGPLREVYGRFAKTPWTPPGTTPVRHLHALGVLGPTTLLVHGVQVDEEEVGLLAETGTKVVLCPRSNRNLEVGEAPLALYAKHGVELALGTDSRGSSPDLDVKNEARFLWGRAEPRLLVRALTRGGYRALGLPTPRLTRGTPLSLVHFL” here?
A: soluble

Q: Which “soluble on expression in E. coli” value does the source give for “MAPTTVIADNNCNEESSNSFEMEIEAESAILEQIQNKMAKNLESAAYVPPTEEEQKAIDAKSVFIGNVDFNSTIEEVEEHFKGCGHIVRTTIPKDKFTKKQKNFAYIEFDDSSSIENALVMNGSLFRSRPIVVTAKRTNIPGMGHGVRGSSRGTFGRGRGAARGAPGRQQTVVVKYVYVNGPNRGGRGGRGRRFNPY” here?
A: soluble

Q: For “GSHMARYDSLLQALGNTPLVGLQRLSPRWDDGRDGPHVRLWAKLEDRNPTGSIKDRPAVRMIEQAEADGLLRPGATILEPTSGNTGISLAMAARLKGYRLICVMPENTSVERRQLLELYGAQIIFSAAEGGSNTAVATAKELAATNPSWVMLYQYGNPANTDSHYCGTGPELLADLPEITHFVAGLGTTGTLMGTGRFLREHVANVKIVAAEPRYGEGVYALRNMDEGFVPELYDPEILTARYSVGAVDAVRRTRELVHTEGIFAGISTGAVLHAALGVGAGALAAGERADIALVVADAGWKYLSTGAYAGSLDDAETALEGQLWA”, which “soluble on expression in E. coli” value is on record?
A: soluble

Q: For “MARKKTITKEQILTAAYEVVATEGFSKFTARNIANKMKCSTQPIYLEFKNMDDLRDALFQKIHKYLAKEVFPVKHTGNTIVDLALNYIHFATSESKLYRALYLEEYGGGKKMQEFSYHYFTEAVKADPEYANLNDVQIDSLHMGTWVVATGVAALMTSGIIHPSEEQIIHLMKDSIEAILERDEPIDIDL”, which “soluble on expression in E. coli” value is on record?
A: soluble

Q: For “MTTYAALLRGINVGGNKKVPMAELRTLLQGLGYGGVATYLQSGNAVFTSDHGDEQSLAAEVGQAIEKRFGFTVDVLVRDHAYLKAVREACPFPAAELEAKQLHVTYFSGPVDAERFASLDQPAFLPEEFRLGDRALYLYAPDGLGRSKLGETLARPRLLKGIVATSRNWNTVVKLEELTGA”, which “soluble on expression in E. coli” value is on record?
A: not soluble

Q: Which “soluble on expression in E. coli” value does the source give for “MGSDKIHHHHHHMPAFNQHDLSHFVGKHLIYTYDNGWNYELYVKNANTIDYRIHSGIVGNRWVKDQQVYIVQVAREVYKISWTEPTGTDVSLIANIADKVFHGTIFFPRWVINNPEKTVCFQNEHIAEMEAYRDAGPAYPTEVIDEFATITFIRDCGENNNDVINCPASELPADFPACLKK” here?
A: not soluble
